According to US20190352341 (published 2019):
Like-named read-outs stand apart in the source and are kept apart here. Square brackets hold non-standard residues; d marks the D form. Ends that are not written are not given here. Met(O) = CS(=O)CC[C@H](N)C(=O)O; pS = N[C@@H](COP(=O)(O)O)C(=O)O

Columns and labels:
HSC70 [1] = target: T1, HSC70 (bovine, UniProt P19120); experiment: SPR, 25C pH 7.4
HSC70 [2] = target: T1, HSC70; experiment: SPR, 25C pH 7.4; remark: listed apart in the source

T1 sequence (P19120 2-650): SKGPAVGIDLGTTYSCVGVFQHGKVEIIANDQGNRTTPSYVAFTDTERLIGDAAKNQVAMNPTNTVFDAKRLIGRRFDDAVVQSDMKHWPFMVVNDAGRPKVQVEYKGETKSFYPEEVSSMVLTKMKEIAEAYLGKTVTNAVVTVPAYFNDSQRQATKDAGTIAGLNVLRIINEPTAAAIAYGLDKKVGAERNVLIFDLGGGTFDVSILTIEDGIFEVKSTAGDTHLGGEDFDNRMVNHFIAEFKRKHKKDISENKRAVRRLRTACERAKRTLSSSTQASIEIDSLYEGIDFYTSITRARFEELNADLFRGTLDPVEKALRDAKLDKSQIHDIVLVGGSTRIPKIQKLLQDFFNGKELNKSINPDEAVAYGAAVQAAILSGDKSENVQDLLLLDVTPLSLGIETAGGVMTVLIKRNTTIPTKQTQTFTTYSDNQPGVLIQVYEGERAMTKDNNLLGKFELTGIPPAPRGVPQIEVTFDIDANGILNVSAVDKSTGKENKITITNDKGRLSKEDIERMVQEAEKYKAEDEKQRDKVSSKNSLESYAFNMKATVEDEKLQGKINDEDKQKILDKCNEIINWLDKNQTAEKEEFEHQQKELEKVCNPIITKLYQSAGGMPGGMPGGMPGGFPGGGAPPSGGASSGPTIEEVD

Binder	Kd (HSC70 [1]) [µM]	Kd (HSC70 [2]) [nM]
RIHMVYSKR[pS]GKPRGYAFIEY [P140]	6.94	–
RIH[Met(O)]VYSKR[pS]GKPRGYAFIEY [P140(MO)]	–	1910
